These results are taken from the supplement of paper PMC5998384.

Data set [1] relates to HeLa Kyoto. Briefly: melting temperature (median over replicates), in situ; higher = more thermally stable.
In data set [2] the test system is HeLa Kyoto. Description: solubility in G1/S (NP-40 vs SDS abundance) (log2 ratio); higher = more soluble. To be noted: cell cycle stage: G1/S.
The test system of data set [3] is HeLa Kyoto. Description: thermal stability score vs G1/S (z-score of summed log2 fold changes over temperatures); higher = more thermally stable than in G1/S.
Data set [4] concerns HeLa Kyoto. Briefly: solubility change mitosis vs G1/S (difference of NP-40 vs SDS log2 ratios) (log2 ratio difference); higher = more soluble in mitosis.
Setting [5] is: cell cycle stage: early G1 (4.5 h after nocodazole release).
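For melting temperature (median over replicates), in situ in this document: HeLa Kyoto cells synchronized by double thymidine or nocodazole block, proteins quantified by TMT10plex mass spectrometry, three independent biological replicates.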
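For solubility change mitosis vs G1/S (difference of NP-40 vs SDS log2 ratios) in this document: synchronized HeLa Kyoto cells (double thymidine block for G1/S, nocodazole release for mitosis), protein amounts in NP-40 versus SDS lysates quantified by mass spectrometry, three biological replicates.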
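For solubility in G1/S (NP-40 vs SDS abundance) in this document: HeLa Kyoto cells arrested at G1/S by double thymidine block, proteins quantified by TMT10plex mass spectrometry in mild NP-40 versus SDS extracts, three biological replicates.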
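For thermal stability score vs G1/S (z-score of summed log2 fold changes over temperatures) in this document: synchronized HeLa Kyoto cells, proteins quantified by TMT10plex mass spectrometry, three biological replicates, mitosis taken 0.5 h after nocodazole release, G1/S directly after double thymidine block.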

On to “MSGEDEQQEQTIAEDLVVTKYKMGGDIANRVLRSLVEASSSGVSVLSLCEKGDAMIMEETGKIFKKEKEMKKGIAFPTSISVNNCVCHFSPLKSDQDYILKEGDLVKIDLGVHVDGFIANVAHTFVVDVAQGTQVTGRKADVIKAAHLCAEAALRLVKPGNQNTQVTEAWNKVAHSFNCTPIEGMLSHQLKQHVIDGEKTIIQNPTDQQKKDHEKAEFEVHEVYAVDVLVSSGEGKAKDAGQRTTIYKRDPSKQYGLKMKTSRAFFSEVERRFDAMPFTLRAFEDEKKARMGVVECAKHELLQPFNVLYEKEGEFVAQFKFTVLLMPNGPMRITSGPFEPDLYKSEMEVQDAELKALLQSSASRKTQKKKKKKASKTAENATSGETLEENEAGD [PA2G4]”, for which the melting temperature in data set [1] (cell cycle stage: G1/S) was determined as 51.5 °C; in data set [1] (cell cycle stage: mitosis), 52.1 °C. The “solubility in G1/S (log2)” value in data set [2] was -0.0146. Further, the thermal stability score in data set [3] (setting [5]) is -0.392; in data set [3] (cell cycle stage: mitosis), 2. In addition, the “solubility change mitosis (log2)” value in data set [4] is -0.108.

Regarding “MEFSSPSREECPKPLSRVSIMAGSLTGLLLLQAVSWASGARPCIPKSFGYSSVVCVCNATYCDSFDPPTFPALGTFSRYESTRSGRRMELSMGPIQANHTGTGLLLTLQPEQKFQKVKGFGGAMTDAAALNILALSPPAQNLLLKSYFSEEGIGYNIIRVPMASCDFSIRTYTYADTPDDFQLHNFSLPEEDTKLKIPLIHRALQLAQRPVSLLASPWTSPTWLKTNGAVNGKGSLKGQPGDIYHQTWARYFVKFLDAYAEHKLQFWAVTAENEPSAGLLSGYPFQCLGFTPEHQRDFIARDLGPTLANSTHHNVRLLMLDDQRLLLPHWAKVVLTDPEAAKYVHGIAVHWYLDFLAPAKATLGETHRLFPNTMLFASEACVGSKFWEQSVRLGSWDRGMQYSHSIITNLLYHVVGWTDWNLALNPEGGPNWVRNFVDSPIIVDITKDTFYKQPMFYHLGHFSKFIPEGSQRVGLVASQKNDLDAVALMHPDGSAVVVVLNRSSKDVPLTIKDPAVGFLETISPGYSIHTYLWRRQ [GBA]”, the melting temperature in data set [1] (cell cycle stage: G1/S) was 55.4 °C; in data set [1] (cell cycle stage: mitosis), 55.7 °C. Further, the “solubility in G1/S (log2)” value in data set [2] was 0.227. Further, the thermal stability score in data set [3] (setting [5]) was -0.371; in data set [3] (cell cycle stage: mitosis) it was 0.189. In addition, the “solubility change mitosis (log2)” value in data set [4] was -0.136.

“MATFISVQLKKTSEVDLAKPLVKFIQQTYPSGGEEQAQYCRAAEELSKLRRAAVGRPLDKHEGALETLLRYYDQICSIEPKFPFSENQICLTFTWKDAFDKGSLFGGSVKLALASLGYEKSCVLFNCAALASQIAAEQNLDNDEGLKIAAKHYQFASGAFLHIKETVLSALSREPTVDISPDTVGTLSLIMLAQAQEVFFLKATRDKMKDAIIAKLANQAADYFGDAFKQCQYKDTLPKEVFPVLAAKHCIMQANAEYHQSILAKQQKKFGEEIARLQHAAELIKTVASRYDEYVNVKDFSDKINRALAAAKKDNDFIYHDRVPDLKDLDPIGKATLVKSTPVNVPISQKFTDLFEKMVPVSVQQSLAAYNQRKADLVNRSIAQMREATTLANGVLASLNLPAAIEDVSGDTVPQSILTKSRSVIEQGGIQTVDQLIKELPELLQRNREILDESLRLLDEEEATDNDLRAKFKERWQRTPSNELYKPLRAEGTNFRTVLDKAVQADGQVKECYQSHRDTIVLLCKPEPELNAAIPSANPAKTMQGSEVVNVLKSLLSNLDEVKKEREGLENDLKSVNFDMTSKFLTALAQDGVINEEALSVTELDRVYGGLTTKVQESLKKQEGLLKNIQVSHQEFSKMKQSNNEANLREEVLKNLATAYDNFVELVANLKEGTKFYNELTEILVRFQNKCSDIVFARKTERDELLKDLQQSIAREPSAPSIPTPAYQSSPAGGHAPTPPTPAPRTMPPTKPQPPARPPPPVLPANRAPSATAPSPVGAGTAAPAPSQTPGSAPPPQAQGPPYPTYPGYPGYCQMPMPMGYNPYAYGQYNMPYPPVYHQSPGQAPYPGPQQPSYPFPQPPQQSYYPQQ [PDCD6IP]”: the melting temperature in data set [1] (cell cycle stage: G1/S) was determined as 48.7 °C; in data set [1] (cell cycle stage: mitosis) it was 48.6 °C. In addition, the “solubility in G1/S (log2)” value in data set [2] is 0.366. The results for the thermal stability score in data set [3] (setting [5]) and in data set [3] (cell cycle stage: mitosis) were -2.03 and -1.7, respectively. In data set [4], the “solubility change mitosis (log2)” value was -0.0427.

In the case of “MPYQYPALTPEQKKELSDIAHRIVAPGKGILAADESTGSIAKRLQSIGTENTEENRRFYRQLLLTADDRVNPCIGGVILFHETLYQKADDGRPFPQVIKSKGGVVGIKVDKGVVPLAGTNGETTTQGLDGLSERCAQYKKDGADFAKWRCVLKIGEHTPSALAIMENANVLARYASICQQNGIVPIVEPEILPDGDHDLKRCQYVTEKVLAAVYKALSDHHIYLEGTLLKPNMVTPGHACTQKFSHEEIAMATVTALRRTVPPAVTGITFLSGGQSEEEASINLNAINKCPLLKPWALTFSYGRALQASALKAWGGKKENLKAAQEEYVKRALANSLACQGKYTPSGQAGAAASESLFVSNHAY [ALDOA]”, the melting temperature was 58.2 °C in data set [1] (cell cycle stage: G1/S) and 58.5 °C in data set [1] (cell cycle stage: mitosis). Besides, the “solubility in G1/S (log2)” value in data set [2] was determined as 0.345. Also, the thermal stability score in data set [3] (setting [5]) is -1.95; in data set [3] (cell cycle stage: mitosis) it was -2.35. The “solubility change mitosis (log2)” value in data set [4] is -0.0218.

For “MKPAAREARLPPRSPGLRWALPLLLLLLRLGQILCAGGTPSPIPDPSVATVATGENGITQISSTAESFHKQNGTGTPQVETNTSEDGESSGANDSLRTPEQGSNGTDGASQKTPSSTGPSPVFDIKAVSISPTNVILTWKSNDTAASEYKYVVKHKMENEKTITVVHQPWCNITGLRPATSYVFSITPGIGNETWGDPRVIKVITEPIPVSDLRVALTGVRKAALSWSNGNGTASCRVLLESIGSHEELTQDSRLQVNISGLKPGVQYNINPYLLQSNKTKGDPLGTEGGLDASNTERSRAGSPTAPVHDESLVGPVDPSSGQQSRDTEVLLVGLEPGTRYNATVYSQAANGTEGQPQAIEFRTNAIQVFDVTAVNISATSLTLIWKVSDNESSSNYTYKIHVAGETDSSNLNVSEPRAVIPGLRSSTFYNITVCPVLGDIEGTPGFLQVHTPPVPVSDFRVTVVSTTEIGLAWSSHDAESFQMHITQEGAGNSRVEITTNQSIIIGGLFPGTKYCFEIVPKGPNGTEGASRTVCNRTVPSAVFDIHVVYVTTTEMWLDWKSPDGASEYVYHLVIESKHGSNHTSTYDKAITLQGLIPGTLYNITISPEVDHVWGDPNSTAQYTRPSNVSNIDVSTNTTAATLSWQNFDDASPTYSYCLLIEKAGNSSNATQVVTDIGITDATVTELIPGSSYTVEIFAQVGDGIKSLEPGRKSFCTDPASMASFDCEVVPKEPALVLKWTCPPGANAGFELEVSSGAWNNATHLESCSSENGTEYRTEVTYLNFSTSYNISITTVSCGKMAAPTRNTCTTGITDPPPPDGSPNITSVSHNSVKVKFSGFEASHGPIKAYAVILTTGEAGHPSADVLKYTYEDFKKGASDTYVTYLIRTEEKGRSQSLSEVLKYEIDVGNESTTLGYYNGKLEPLGSYRACVAGFTNITFHPQNKGLIDGAESYVSFSRYSDAVSLPQDPGVICGAVFGCIFGALVIVTVGGFIFWRKKRKDAKNNEVSFSQIKPKKSKLIRVENFEAYFKKQQADSNCGFAEEYEDLKLVGISQPKYAAELAENRGKNRYNNVLPYDISRVKLSVQTHSTDDYINANYMPGYHSKKDFIATQGPLPNTLKDFWRMVWEKNVYAIIMLTKCVEQGRTKCEEYWPSKQAQDYGDITVAMTSEIVLPEWTIRDFTVKNIQTSESHPLRQFHFTSWPDHGVPDTTDLLINFRYLVRDYMKQSPPESPILVHCSAGVGRTGTFIAIDRLIYQIENENTVDVYGIVYDLRMHRPLMVQTEDQYVFLNQCVLDIVRSQKDSKVDLIYQNTTAMTIYENLAPVTTFGKTNGYIA [PTPRJ]”, the melting temperature in data set [1] (cell cycle stage: G1/S) amounted to 50.6 °C; in data set [1] (cell cycle stage: mitosis), 50 °C. Besides, in data set [2], the “solubility in G1/S (log2)” value is -0.204. The thermal stability score in data set [3] (setting [5]) was 3.12; in data set [3] (cell cycle stage: mitosis) it was -2.28. In data set [4], the “solubility change mitosis (log2)” value was found to be 0.155.
